In US20100129294A1 one finds rate of Aβ fibril degradation (37 C, pH 7.4, ThT binding assay) data, which are given here for one substance.

The assay has as its target Aβ40 fibrils formed from a synthetic Aβ40 peptide (human). In words: cell-based or functional assay.

Turning to “nattokinase (from UniProt P35835 107-381) (enzyme)”, the rate of Aβ fibril degradation (37 C, pH 7.4, ThT binding assay) is 0.015 s⁻¹.
